Earlier results as cited in patent publication US8853185B2, “Coferons and methods of making and using them” (Cornell University, priority 2008, dated 2014).
Each block holds one molecule with its values, some of them ahead of it.

Legend:
Conditions in all cases: read-out: DISSOCIATION CONSTANT (Kd)
ASK1 = molecular target: T1, ASK1 (Homo sapiens, UniProt Q99683)
T1 sequence (Q99683 1-1374): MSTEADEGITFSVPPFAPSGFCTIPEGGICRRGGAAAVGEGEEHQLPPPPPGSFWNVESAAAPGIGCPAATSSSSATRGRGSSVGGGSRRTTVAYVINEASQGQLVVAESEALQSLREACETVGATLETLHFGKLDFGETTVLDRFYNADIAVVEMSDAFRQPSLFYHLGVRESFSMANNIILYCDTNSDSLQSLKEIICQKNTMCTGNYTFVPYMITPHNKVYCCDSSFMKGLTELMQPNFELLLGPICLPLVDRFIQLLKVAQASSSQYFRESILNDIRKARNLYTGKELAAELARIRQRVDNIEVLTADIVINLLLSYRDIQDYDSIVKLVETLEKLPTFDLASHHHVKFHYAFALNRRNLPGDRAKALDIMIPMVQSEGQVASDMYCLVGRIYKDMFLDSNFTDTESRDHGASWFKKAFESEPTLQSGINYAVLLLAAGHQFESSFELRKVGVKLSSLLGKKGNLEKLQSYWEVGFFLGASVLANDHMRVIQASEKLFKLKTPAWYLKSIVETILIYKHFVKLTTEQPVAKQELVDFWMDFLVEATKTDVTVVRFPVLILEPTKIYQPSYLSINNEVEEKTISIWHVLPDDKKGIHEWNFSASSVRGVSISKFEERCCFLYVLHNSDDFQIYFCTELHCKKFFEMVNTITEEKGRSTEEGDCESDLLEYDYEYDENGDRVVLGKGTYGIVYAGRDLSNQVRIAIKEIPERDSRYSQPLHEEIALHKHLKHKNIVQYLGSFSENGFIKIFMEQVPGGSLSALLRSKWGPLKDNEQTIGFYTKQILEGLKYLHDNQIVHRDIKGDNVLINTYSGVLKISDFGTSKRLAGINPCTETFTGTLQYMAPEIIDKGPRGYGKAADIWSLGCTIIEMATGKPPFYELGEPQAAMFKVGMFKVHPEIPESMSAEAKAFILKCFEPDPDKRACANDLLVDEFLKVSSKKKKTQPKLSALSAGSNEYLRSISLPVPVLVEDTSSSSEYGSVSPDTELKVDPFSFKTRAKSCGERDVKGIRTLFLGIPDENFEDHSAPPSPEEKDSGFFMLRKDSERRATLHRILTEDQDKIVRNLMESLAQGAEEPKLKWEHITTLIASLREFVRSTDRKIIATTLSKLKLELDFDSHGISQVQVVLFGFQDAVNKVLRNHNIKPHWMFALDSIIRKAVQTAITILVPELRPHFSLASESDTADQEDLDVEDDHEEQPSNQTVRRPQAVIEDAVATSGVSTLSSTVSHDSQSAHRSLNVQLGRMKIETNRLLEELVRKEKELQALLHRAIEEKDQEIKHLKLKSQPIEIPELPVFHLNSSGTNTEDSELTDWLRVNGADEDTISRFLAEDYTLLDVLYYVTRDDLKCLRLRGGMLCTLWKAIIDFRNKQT

p53 = p53 (Homo sapiens, UniProt P04637)
Chain of p53 (P04637 whole entry, species assumed): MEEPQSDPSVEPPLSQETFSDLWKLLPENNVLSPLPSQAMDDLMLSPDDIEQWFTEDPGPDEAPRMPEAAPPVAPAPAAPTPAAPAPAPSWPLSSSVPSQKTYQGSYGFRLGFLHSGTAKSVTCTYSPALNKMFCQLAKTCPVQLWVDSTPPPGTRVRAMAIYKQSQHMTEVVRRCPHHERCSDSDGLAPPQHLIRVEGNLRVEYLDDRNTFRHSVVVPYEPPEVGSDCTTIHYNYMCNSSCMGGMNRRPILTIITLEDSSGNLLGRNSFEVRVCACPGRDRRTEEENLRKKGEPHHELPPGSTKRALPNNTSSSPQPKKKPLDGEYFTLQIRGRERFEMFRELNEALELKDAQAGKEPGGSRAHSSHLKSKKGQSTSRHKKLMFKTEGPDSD

NF2 = molecular target: T2, NF2 (Homo sapiens, UniProt P35240)
T2 sequence (P35240 1-595): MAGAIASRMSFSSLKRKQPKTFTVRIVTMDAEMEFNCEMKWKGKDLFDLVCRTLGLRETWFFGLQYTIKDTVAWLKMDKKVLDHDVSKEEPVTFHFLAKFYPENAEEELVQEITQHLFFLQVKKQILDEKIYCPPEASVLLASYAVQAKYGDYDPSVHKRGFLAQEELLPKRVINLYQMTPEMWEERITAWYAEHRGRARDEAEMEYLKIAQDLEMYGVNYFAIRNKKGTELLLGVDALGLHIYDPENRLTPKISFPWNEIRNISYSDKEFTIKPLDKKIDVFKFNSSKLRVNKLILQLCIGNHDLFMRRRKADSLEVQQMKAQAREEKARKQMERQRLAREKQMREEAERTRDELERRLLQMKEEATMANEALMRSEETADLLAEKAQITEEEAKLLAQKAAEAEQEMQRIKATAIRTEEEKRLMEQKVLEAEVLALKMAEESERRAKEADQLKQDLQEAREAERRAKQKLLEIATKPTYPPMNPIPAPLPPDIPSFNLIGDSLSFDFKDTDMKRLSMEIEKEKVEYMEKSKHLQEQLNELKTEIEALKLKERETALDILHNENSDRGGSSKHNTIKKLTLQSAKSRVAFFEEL

MKK4 = molecular target: T3, MKK4 (Homo sapiens, UniProt P45985)
T3 sequence (P45985 1-399): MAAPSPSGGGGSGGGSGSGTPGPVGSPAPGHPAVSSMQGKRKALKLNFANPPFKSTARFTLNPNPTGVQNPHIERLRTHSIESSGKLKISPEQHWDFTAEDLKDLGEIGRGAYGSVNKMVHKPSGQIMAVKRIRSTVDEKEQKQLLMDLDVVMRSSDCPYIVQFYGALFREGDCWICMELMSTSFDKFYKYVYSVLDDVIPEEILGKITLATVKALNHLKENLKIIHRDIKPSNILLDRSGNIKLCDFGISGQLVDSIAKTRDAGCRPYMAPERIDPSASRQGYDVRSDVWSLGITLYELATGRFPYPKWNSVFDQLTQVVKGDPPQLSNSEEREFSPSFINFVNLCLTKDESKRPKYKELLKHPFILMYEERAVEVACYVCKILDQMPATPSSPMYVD

GABP β = GABP β (Homo sapiens, UniProt Q06547)
Chain of GABP β (Q06547 whole entry): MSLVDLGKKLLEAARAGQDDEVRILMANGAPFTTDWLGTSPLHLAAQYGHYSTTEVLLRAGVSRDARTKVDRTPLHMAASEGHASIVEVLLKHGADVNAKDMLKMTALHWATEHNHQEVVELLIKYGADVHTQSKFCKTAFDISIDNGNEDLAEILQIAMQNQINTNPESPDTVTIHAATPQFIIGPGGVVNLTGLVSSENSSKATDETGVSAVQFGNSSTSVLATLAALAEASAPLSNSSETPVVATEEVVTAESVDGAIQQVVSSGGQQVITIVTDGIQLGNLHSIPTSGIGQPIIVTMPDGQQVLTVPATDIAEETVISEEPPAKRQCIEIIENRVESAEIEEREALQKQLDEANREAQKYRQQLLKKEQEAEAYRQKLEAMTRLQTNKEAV

- Kd (ASK1): 220 nM
B1: ASK1: binding partner of ASK1 (protein, UniProt Q99683 1-1374, looked up)
Mitogen-activated protein …: MSTEADEGITFSVPPFAPSGFCTIPEGGICRRGGAAAVGEGEEHQLPPPPPGSFWNVESAAAPGIGCPAATSSSSATRGRGSSVGGGSRRTTVAYVINEASQGQLVVAESEALQSLREACETVGATLETLHFGKLDFGETTVLDRFYNADIAVVEMSDAFRQPSLFYHLGVRESFSMANNIILYCDTNSDSLQSLKEIICQKNTMCTGNYTFVPYMITPHNKVYCCDSSFMKGLTELMQPNFELLLGPICLPLVDRFIQLLKVAQASSSQYFRESILNDIRKARNLYTGKELAAELARIRQRVDNIEVLTADIVINLLLSYRDIQDYDSIVKLVETLEKLPTFDLASHHHVKFHYAFALNRRNLPGDRAKALDIMIPMVQSEGQVASDMYCLVGRIYKDMFLDSNFTDTESRDHGASWFKKAFESEPTLQSGINYAVLLLAAGHQFESSFELRKVGVKLSSLLGKKGNLEKLQSYWEVGFFLGASVLANDHMRVIQASEKLFKLKTPAWYLKSIVETILIYKHFVKLTTEQPVAKQELVDFWMDFLVEATKTDVTVVRFPVLILEPTKIYQPSYLSINNEVEEKTISIWHVLPDDKKGIHEWNFSASSVRGVSISKFEERCCFLYVLHNSDDFQIYFCTELHCKKFFEMVNTITEEKGRSTEEGDCESDLLEYDYEYDENGDRVVLGKGTYGIVYAGRDLSNQVRIAIKEIPERDSRYSQPLHEEIALHKHLKHKNIVQYLGSFSENGFIKIFMEQVPGGSLSALLRSKWGPLKDNEQTIGFYTKQILEGLKYLHDNQIVHRDIKGDNVLINTYSGVLKISDFGTSKRLAGINPCTETFTGTLQYMAPEIIDKGPRGYGKAADIWSLGCTIIEMATGKPPFYELGEPQAAMFKVGMFKVHPEIPESMSAEAKAFILKCFEPDPDKRACANDLLVDEFLKVSSKKKKTQPKLSALSAGSNEYLRSISLPVPVLVEDTSSSSEYGSVSPDTELKVDPFSFKTRAKSCGERDVKGIRTLFLGIPDENFEDHSAPPSPEEKDSGFFMLRKDSERRATLHRILTEDQDKIVRNLMESLAQGAEEPKLKWEHITTLIASLREFVRSTDRKIIATTLSKLKLELDFDSHGISQVQVVLFGFQDAVNKVLRNHNIKPHWMFALDSIIRKAVQTAITILVPELRPHFSLASESDTADQEDLDVEDDHEEQPSNQTVRRPQAVIEDAVATSGVSTLSSTVSHDSQSAHRSLNVQLGRMKIETNRLLEELVRKEKELQALLHRAIEEKDQEIKHLKLKSQPIEIPELPVFHLNSSGTNTEDSELTDWLRVNGADEDTISRFLAEDYTLLDVLYYVTRDDLKCLRLRGGMLCTLWKAIIDFRNKQT

- Kd (p53): 12700 nM
B2: HmtSSB: binding partner of p53 (protein, UniProt Q04837 17-148, looked up)
Single-stranded DNA-binding …: ESETTTSLVLERSLNRVHLLGRVGQDPVLRQVEGKNPVTIFSLATNEMWRSGDSEVYQLGDVSQKTTWHRISVFRPGLRDVAYQYVKKGSRIYLEGKIDYGEYMDKNNVRRQATTIIADNIIFLSDQTKEKE

- Kd (NF2): 3.7 nM
B3: MPP1: binding partner of NF2 (protein, UniProt Q00013 2-466, looked up)
55 kDa erythrocyte membrane …: TLKASEGESGGSMHTALSDLYLEHLLQKRSRPEAVSHPLNTVTEDMYTNGSPAPGSPAQVKGQEVRKVRLIQFEKVTEEPMGITLKLNEKQSCTVARILHGGMIHRQGSLHVGDEILEINGTNVTNHSVDQLQKAMKETKGMISLKVIPNQQSRLPALQMFMRAQFDYDPKKDNLIPCKEAGLKFATGDIIQIINKDDSNWWQGRVEGSSKESAGLIPSPELQEWRVASMAQSAPSEAPSCSPFGKKKKYKDKYLAKHSSIFDQLDVVSYEEVVRLPAFKRKTLVLIGASGVGRSHIKNALLSQNPEKFVYPVPYTTRPPRKSEEDGKEYHFISTEEMTRNISANEFLEFGSYQGNMFGTKFETVHQIHKQNKIAILDIEPQTLKIVRTAELSPFIVFIAPTDQGTQTEALQQLQKDSEAIRSQYAHYFDLSLVNNGVDETLKKLQEAFDQACSSPQWVPVSWVY

- Kd (MKK4): 35000 nM
B4: JNK3: binding partner of MKK4 (protein, UniProt P53779 1-464, looked up)
Mitogen-activated protein …: MSLHFLYYCSEPTLDVKIAFCQGFDKQVDVSYIAKHYNMSKSKVDNQFYSVEVGDSTFTVLKRYQNLKPIGSGAQGIVCAAYDAVLDRNVAIKKLSRPFQNQTHAKRAYRELVLMKCVNHKNIISLLNVFTPQKTLEEFQDVYLVMELMDANLCQVIQMELDHERMSYLLYQMLCGIKHLHSAGIIHRDLKPSNIVVKSDCTLKILDFGLARTAGTSFMMTPYVVTRYYRAPEVILGMGYKENVDIWSVGCIMGEMVRHKILFPGRDYIDQWNKVIEQLGTPCPEFMKKLQPTVRNYVENRPKYAGLTFPKLFPDSLFPADSEHNKLKASQARDLLSKMLVIDPAKRISVDDALQHPYINVWYDPAEVEAPPPQIYDKQLDEREHTIEEWKELIYKEVMNSEEKTKNGVVKGQPSPSGAAVNSSESLPPSSSVNDISSMSTDQTLASDTDSSLEASAGPLGCCR

- Kd (GABP β): 600 nM
B5: GABP β: binding partner of GABP β (protein, UniProt Q06547 2-395, looked up)
GA-binding protein subunit …: SLVDLGKKLLEAARAGQDDEVRILMANGAPFTTDWLGTSPLHLAAQYGHYSTTEVLLRAGVSRDARTKVDRTPLHMAASEGHASIVEVLLKHGADVNAKDMLKMTALHWATEHNHQEVVELLIKYGADVHTQSKFCKTAFDISIDNGNEDLAEILQIAMQNQINTNPESPDTVTIHAATPQFIIGPGGVVNLTGLVSSENSSKATDETGVSAVQFGNSSTSVLATLAALAEASAPLSNSSETPVVATEEVVTAESVDGAIQQVVSSGGQQVITIVTDGIQLGNLHSIPTSGIGQPIIVTMPDGQQVLTVPATDIAEETVISEEPPAKRQCIEIIENRVESAEIEEREALQKQLDEANREAQKYRQQLLKKEQEAEAYRQKLEAMTRLQTNKEAV
